In assay [1] the target is T1, Protein Serine Kinase H1 (PSKH1), recombinant full-length, wild type (human, UniProt P11801 1-424).
T1 sequence (looked up): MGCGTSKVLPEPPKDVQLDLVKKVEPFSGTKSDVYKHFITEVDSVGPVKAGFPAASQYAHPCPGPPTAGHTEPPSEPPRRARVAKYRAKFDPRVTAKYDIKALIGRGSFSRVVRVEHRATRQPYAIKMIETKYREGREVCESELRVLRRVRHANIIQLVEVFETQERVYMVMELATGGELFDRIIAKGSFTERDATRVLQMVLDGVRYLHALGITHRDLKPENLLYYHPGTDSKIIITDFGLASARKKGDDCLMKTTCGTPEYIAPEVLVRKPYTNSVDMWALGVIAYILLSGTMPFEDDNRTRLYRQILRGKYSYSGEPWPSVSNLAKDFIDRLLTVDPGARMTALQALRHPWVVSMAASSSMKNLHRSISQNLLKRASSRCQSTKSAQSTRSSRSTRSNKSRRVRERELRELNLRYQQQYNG
The assay can be described thus: cell-based or functional assay.

Assay [2] has as its target T1, Protein Serine Kinase H1 (PSKH1), …. The assay can be described thus: cross-linking; SDA (NHS-Diazirine, 1 mg/mL) cross-linking mass spectrometry; recombinant full-length PSKH1 with Calmodulin, RCN3 or UNC119B at 1:2 molar ratio; 30 min in the dark at room temperature, UV 365 nm; bands cut from reducing SDS-PAGE, trypsin. As to conditions: both partners purified.

B1: Reticulocalbin-3 (RCN3), recombinant (His6-RCN3) (natural protein, human, UniProt Q96D15 21-328, looked up)
chain: KPSPDAGPHGQGRVHQAAPLSDAPHDDAHGNFQYDHEAFLGREVAKEFDQLTPEESQARLGRIVDRMDRAGDGDGWVSLAELRAWIAHTQQRHIRDSVSAAWDTYDTDRDGRVGWEELRNATYGHYAPGEEFHDVEDAETYKKMLARDERRFRVADQDGDSMATREELTAFLHPEEFPHMRDIVIAETLEDLDRNKDGYVQVEEYIADLYSAEPGEEEPAWVQTERQQFRDFRDLNKDGHLDGSEVGHWVLPPAQDQPLVEANHLLHESDTDKDGRLSKAEILGNWNMFVGSQATNYGEDLTRHHDEL
Turning to B1, the “radiometric kinase assay (ADR1 peptide phosphorylation) of HA-tagged PSKH1 (10 ng) with Ca2+-RCN3 (1 uM)” value in assay [1] is about 2 fold.

B2: UNC119B, recombinant full-length (natural protein)
chain: not shown
notes: UNC119B, human, full length
Take B2: the binding result in assay [2] is “binds”.

(Values after PMC11873932, “PSKH1 kinase activity is differentially modulated via allosteric binding of Ca^2+ sensor proteins” (Proceedings of the National Academy of Sciences of the …, 2025).)
